The RNAGym collection of RNA variant scans (doi:10.1073/pnas.2313332121)

B1: TPR t1 (parent)
chain: GACCAAUCUGCCCUCAGAGCUCGAGAACAUCUUCGGAUGCAGAGGAGGCAGGCUUCGGUGGCGCGAUAGCGCCAACGUCCUCAACCUCCAAUGCAUCCCACCACAUGAUGAUGCCUGAAGAGCCUUGGUUUUUUG

Variants of: B1
Experiment: polymerase ribozyme fitness, log enrichment relative to wild type (log ratio); higher = more active; in vitro selection for triplet polymerase activity
Summary of the method: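 Libraries of mutants in each subunit of a heterodimeric triplet polymerase ribozyme were generated by PCR and transcribed. In triplicate, each went through one in vitro selection round: annealing with biotinylated primer, partner subunit and triplets; frozen incubation at −7 °C; gel excision of extended constructs; streptavidin-bead capture; RT-PCR. Fitness, taken from Illumina sequencing of input and output libraries, is the logarithm of a genotype's enrichment over wild-type enrichment, averaged across replicates with inverse-variance weights. The logarithm is base 2, and genotypes needed ≥10 input reads and ≥1 read per output to be kept.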

Row | Variant | polymerase ribozyme fitness (log ratio)
1 | C11A G39A | -2.5
2 | C11G C62A | -0.516
3 | C11G G71U | 0.0897
4 | C11A A37G G60U C101A U131G | -2.57
5 | C11A C56A G69A A84G A121C | -4.27
6 | C11U C79G U92A U106C U112A | -5.83
7 | C11A G48A C70U C114U | -6.22
8 | C11G A18C | -1.71
9 | C11G U59G U92A C114U A121C G128U | -3.21
10 | C11G G52A C94A | 0.0249
11 | C11U G36A G63U | -2.37
12 | C11G G42U C124U | 0.5
13 | C11A A26U C72A | -5.37
14 | C11U A37G U96G | -2.69
15 | C11G C13A G117C U132A U134G | -2.05
16 | C11U C56A C123U | 1.37
17 | C11U C62G | -1.21
18 | C11U C34G A46U G120A A121G | -5.6
19 | C11G G77A | -0.375
20 | C11G C13U U32C G65A G113C G120U | -6.75
21 | C11G C22G C53G C70U C82U | -4.01
22 | C11U C49U C101A | -2.29
23 | C11G G19U C82U | -5.29
24 | C11G C12G C73U C123G U125A | -2.92

Row | Variant | polymerase ribozyme fitness (log ratio)
25 | C11A U116A | -4
26 | C11A G60C C86U | -1.76
27 | C11A U67C | -5.83
28 | C11U C72G | -0.586
29 | C11U G52U C70A | -1.84
30 | C11U A26G G45A G58A | -5.7
31 | C11G C12G C79G C94U G117A U131A | -2.71
32 | C11U G63A C72A | -7.14
33 | C11G C15G G63C A68U C80U C115G G127C G135C | -5.08
34 | C11G C13U C101G | -1.63
35 | C11U C86A C104U | -1.37
36 | C11G G45U G51C G61A | -3.84
37 | C11U C22A A37G A68G C72A U109A | -5.84
38 | C11G G42C G69U A111C | -0.0543
39 | C11U G36U | -1.77
40 | C11G G44A G60A A121U | 1.14
41 | C11U A27U G52C G61C | -4.18
42 | C11U C56U G128C | -3.11
43 | C11U C12G C28U U32C C49A C56G | -2.91
44 | C11U C98U | -1.79
45 | C11G C12A G63A | -0.541
46 | C11G C56G | 0.087
47 | C11G A16U C28G A121C | -0.982
48 | C11A G69C A121G | -0.0496

Row | Variant | polymerase ribozyme fitness (log ratio)
49 | C11G C22U | -2.75
50 | C11G G120U | 1.37
51 | C11G G120A | 1.51
52 | C11G G120C | 1.89
53 | C11G G19A C53U C89A | -2.96
54 | C11A C73U C76A U78G U131A | -4.06
55 | C11U G39U | -1.37
56 | C11U C34A U87A | -3.12
57 | C11U G63C C80U | -2.73
58 | C11G A18C U125A | -2.13
59 | C11U C15G G36C | -7.38
60 | C11A U21C G52C A121C | 0.244
61 | C11G G107U | -3.64
62 | C11G C53G C114U G127C | -1.98
63 | C11A A119C C124G | -4.46
64 | C11G A41C | -0.501
65 | C11G A66G U106A | -0.837
66 | C11G C80A G117C C123U | -7.43
67 | C11G C123U | 0.785
68 | C11G C123G | 0.989
69 | C11A C72U | -1.58
70 | C11U A43G | -2.11
71 | C11U G44C C104U U116C | -3.59
72 | C11U C97A | -4.6

Row | Variant | polymerase ribozyme fitness (log ratio)
73 | C11A C13G G36U C73A | -4.01
74 | C11A G47C | -2.77
75 | C11A G93C | -1.54
76 | C11A G47C C72G | -3.64
77 | C11A A18U A26G G39U G42A G45A G60A U133A | -6.17
78 | C11U A43U C53G | -2.46
79 | C11U C49U | -1.29
80 | C11U G45C | -1.59
81 | C11A G17U G61C A84G C124A | -4.74
82 | C11G C56U C76G U106A A119U | -1.85
83 | C11U G44A | -1.49
84 | C11U G44C | -1.47
85 | C11A C49A G69A G113A G128C | -6.11
86 | C11A C124U | 0.668
87 | C11G G39A C49G C53U G69A A75U G120C | -2.05
88 | C11U C12A A41C C56G | -2.42
89 | C11A C12A A41G C89U | -2.15
90 | C11A U30C | -5.07
91 | C11G C124A | 2.13
92 | C11G | 0.294
93 | C11U | -0.381
94 | C11A C70A | -2.06
95 | C11U G23A G110C U130G | -6.32
96 | C11A G17U | -3.57

Row | Variant | polymerase ribozyme fitness (log ratio)
97 | C11G C13G A111C A121G | 0.62
98 | C11G G42C C53A | -1.03
99 | C11G A37C C88G | -1.94
100 | C11U A46U C86U | -2.1
101 | C11A A100C | -2.81
102 | C11U A50C G60U G77A G122A | 0.303
103 | C11G A18U G44A G69U | 0.139
104 | C11U C20G C72U | -3
105 | C11G A37C G61U | -0.241
106 | C11G A41G C73G | -0.55
107 | C11G C12U G113A A118U | -3.33
108 | C11A G45U U125G G127A | -4
109 | C11G A83U U106C | -0.637
110 | C11A G60U | -0.589
111 | C11U C56A U116C | -2.85
112 | C11U C12A U14G G36U | -4.16
113 | C11U G60U U78C U116C | -2.11
114 | C11U A24U G65C A103C A108U A111U | -6.52
115 | C11G C15G G47C U116C | -2.52
116 | C11G C64U C115U U130A | -1.38
117 | C11G C88U U116C | -0.109
118 | C11A C72G A111U | -6.18
119 | C11U A41G C104A C123U U125C | -1.19
120 | C11G C20U A26C A27G G44U C114U | -6.01

Row | Variant | polymerase ribozyme fitness (log ratio)
121 | C11U C94U | -1.24
122 | C11U C94G | -1.27
123 | C11G U21A C53A C97G | -3.53
124 | C11G C115G | -1.35
125 | C11U A66C C94U | -1.69
126 | C11G A18U G48U C49U G61A | -3.32
127 | C11U C22G A111G G122U U129C | -6.1
128 | C11U G42C | -2.01
129 | C11A C70U G117A | -6.1
130 | C11U C70A | -0.922
131 | C11U C15U | -2.2
132 | C11G C12G A46G G71U | -0.917
133 | C11U C53U C94G C123G | -1.5
134 | C11G U33G G93U U112A G122U | -6.28
135 | C11U G52A C80U | -2.45
136 | C11A G45U G71A A121C U132A | -0.447
137 | C11U G39U C102A C104U A111G | -1.71
138 | C11G C28A C56U C124G | -3.7
139 | C11U A18C C73U G127A | -5.36
140 | C11G G44A A68G | -4.14
141 | C11G C49U G120C | 1.52
142 | C11A G69U C97A C101A C104A | -3.94
143 | C11A C20U C73A A118U U133A | -2.94
144 | C11A G52C C56A | -2.98

Row | Variant | polymerase ribozyme fitness (log ratio)
145 | C11A G17A C124A G128A | -5.02
146 | C11A C49A U59A A91G | -2.95
147 | C11A C15G U21G G63U A90U G93U C115U C124U G127U | -6.26
148 | C11A G42U U106A | -3.49
149 | C11G C76U C99A U130G | -6.95
150 | C11G G25C G39A C56A C72G C82A A111C | -7.55
151 | C11A G60U A83U | -2.13
152 | C11G G45U | -2.69
153 | C11U A41U C62U C85A C102U C114G G120C | -6.27
154 | C11U C20A A29U G117U | -4.71
155 | C11A C88A | -2.15
156 | C11G C40G G42U C73G U87A | -4.66
157 | C11G C49A A74G A75U G77U | -0.693
158 | C11G C13G A18U C49G | -3.53
159 | C11G G117U | -1.54
160 | C11A C15A G51U G71A C99A G113C | -8.01
161 | C11U C22G C31A C72G C99U C123A | -5.82
162 | C11A G61A C104A G110A | -5.34
163 | C11G A37U G69A A83C A121C | -1.05
164 | C11U C123U | 1.77
165 | C11G A66U | -0.995
166 | C11A G61C | -2.39
167 | C11A C13U A41U | -2.84
